# Reference: US20210277061A1 (UNIVERSITY OF HONG KONG, published 2021)
# Read-outs that look alike come from different tables or passages of the source. No end group written: not given here. *: point of attachment. Oxazole(5-CO) = O=C(c1cnco1)*; 2Furoyl = O=C(c1ccco1)*; Cbz = O=C(OCc1ccccc1)*
# T1: AF9 YEATS domain, His-AF9 (1-138) (human, UniProt P42568 1-138)
# T1 construct: Expressed in E. coli; not shown: His tag
# T1 sequence (looked up): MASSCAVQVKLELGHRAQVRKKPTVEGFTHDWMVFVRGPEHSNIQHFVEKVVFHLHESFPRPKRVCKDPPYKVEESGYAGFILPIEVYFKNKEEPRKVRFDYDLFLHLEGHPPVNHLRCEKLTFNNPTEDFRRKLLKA
# T2: YEATS2 YEATS domain, His-SUMO-YEATS2 (201-332) (human, UniProt Q9ULM3 201-332)
# T2 construct: range 201-332; Expressed in E. coli; also called YEATS2 domain; not shown: His-SUMO tag
# T2 sequence (looked up): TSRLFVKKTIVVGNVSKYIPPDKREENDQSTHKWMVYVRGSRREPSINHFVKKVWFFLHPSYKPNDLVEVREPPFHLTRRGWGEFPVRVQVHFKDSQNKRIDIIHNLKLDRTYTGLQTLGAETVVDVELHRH
# T3: ENL YEATS domain, His-SUMO-ENL (1-138) (human, UniProt Q03111 1-138)
# T3 construct: Expressed in E. coli; not shown: His-SUMO tag
# T3 sequence (looked up): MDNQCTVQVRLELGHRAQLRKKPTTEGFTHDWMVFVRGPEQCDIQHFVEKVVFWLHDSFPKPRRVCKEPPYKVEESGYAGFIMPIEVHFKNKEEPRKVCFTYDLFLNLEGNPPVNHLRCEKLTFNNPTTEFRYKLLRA
# Columns and labels:
# [1] = target: T1, AF9 YEATS domain, His-AF9 (1-138); experiment: method and target not named in the sentence (AF9 YEATS by context)
# [2] = target: T1, AF9 YEATS domain, His-AF9 (1-138); experiment: photo-cross-linking competition vs photoaffinity probe, in-gel fluorescence
# [3] = target: T2, YEATS2 YEATS domain, His-SUMO-YEATS2 …; experiment: as above
# [4] = target: T4, Gas41 YEATS domain, His-Gas41 (15-159) (human, UniProt O95619 15-159); experiment: as above
# T4 construct: Expressed in E. coli; not shown: His tag
# T4 sequence (O95619 15-159 limits assumed): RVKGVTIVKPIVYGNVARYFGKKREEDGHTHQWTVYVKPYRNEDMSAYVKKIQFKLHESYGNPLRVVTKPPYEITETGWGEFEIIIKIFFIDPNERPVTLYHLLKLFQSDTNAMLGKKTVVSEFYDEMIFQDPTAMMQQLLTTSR
# [5] = target: T1, AF9 YEATS domain, His-AF9 (1-138); experiment: as above; remark: listed apart in the source
# [6] = target: T2, YEATS2 YEATS domain, His-SUMO-YEATS2 …; experiment: as above; remark: listed apart in the source
# [7] = target: T4, Gas41 YEATS domain, His-Gas41 (15-159); experiment: as above; remark: listed apart in the source
# [8] = target: T1, AF9 YEATS domain, His-AF9 (1-138); experiment: photo-cross-linking-based competition against the photoaffinity probe (probe 1) on AF9 YEATS domain, in-gel fluorescence
# [9] = target: T3, ENL YEATS domain, His-SUMO-ENL (1-138); experiment: photo-cross-linking competition vs photoaffinity probe, in-gel fluorescence
# [10] = target: T3, ENL YEATS domain, His-SUMO-ENL (1-138); experiment: as above; remark: listed apart in the source
# [11] = target: T2, YEATS2 YEATS domain, His-SUMO-YEATS2 …; experiment: photo-cross-linking-based competition against the photoaffinity probe on the YEATS2 YEATS domain, in-gel fluorescence
Kd [1] [µM],IC50 [2] [µM],IC50 [3] [µM],IC50 [4] [µM],IC50 [5] [µM],IC50 [6] [µM],IC50 [7] [µM],IC50 [8] [µM],IC50 [9] [µM],IC50 [10] [µM],IC50 [11] [µM],Binder
0.131,0.24,98.7,14.5,0.24,98.7,14.5,,,,,Cbz-QTARK(Oxazole(5-CO))-NH2 (also called 4.13a) [compound 27 (XL-13a)]
,27.9,,,,,,31.8,,,,"KQTARKSTGG-NH2 (not fully specified (residue 6); also: Lys6 acylated with group R, structure drawing only, also called 4.1) [compound 1 (XL-01)]"
0.33,0.26,42.4,123,0.26,42.4,123,,1.3,1.3,42.2,"Cbz-QTARK(2Furoyl)-NH2 (SMILES C[C@H](NC(=O)[C@@H](NC(=O)[C@H](CCC(N)=O)NC(=O)OCc1ccccc1)[C@@H](C)O)C(=O)N[C@@H](CCCNC(=N)N)C(=O)N[C@@H](CCCCNC(=O)c1ccco1)C(N)=O, also called 4.7j) [compound 26 (XL-07j)]"
